What was measured:
[1] = Skin absorption of 125I-labeled BBI or BBIssPal; conditions: 5 μl of 0.5 mg/ml on 0.38 cm^2, 30 minutes, 23° C.
[2] = system: C3H 10T1/2(clone 8) cells; assay: In vitro transformation assay (MCA-induced); assay type: cell-based; conditions: MCA 1 μg/ml 24 hr, then conjugates 1.0 μg/ml for first three weeks
Description: Transformation assays were carried out using C3H 10T1/2(clone 8) cells according to the published recommendations [Reznikoff, C. A. et al. (1973) Cancer. Res. 33, 3239–3249; Reznikoff, C. A. et al. (1973) Cancer. Res. 33, 3231–3238]. Stock cultures of mycoplasma-free cells were maintained by passing 50,000 cells per 75 cm^2 flask every seven days. Using this schedule, the cells were always passed approximately 2 days before reaching confluence. The stock culture was grown in Eagle's basal medium supplemented with 10% FBS, penicillin (100 units), and streptomycin (100 μg) and used for the transformation assays at passages of 9 to 14. The cells were passed by treating the stock cells with trypsin (0.1%) in PBS for 5 min and quenching the trypsin with 5 ml of the medium. This procedure was adapted to minimize spontaneous transformation in the stock cultures and maximize the plating efficiency in the petri dishes. The FBS stock used in the cultures was pre-screened to ensure that the serum was able to support the expression and the growth of the transformed cells.
For the transformation assays, C3H 10T1/2 cells (1000/dish) were seeded into 60 mm petri dishes and allowed to grow in a humidified 5% CO2 atmosphere in Eagle's basal medium, supplemented with 10% FBS, penicillin (100 units), and streptomycin (100 μg), for 24 hr. Subsequently, the cells were initiated by treatment with 25 μl of the 3-methylcholanthrene (MCA) in acetone stock solution ([…]) to a final concentration of 1 μg/ml of MCA (5 μg/5 ml). The cells were allowed to grow in the presence of the carcinogen or solvent for 24 hr, and the medium in each dish was then replaced with fresh medium containing no carcinogen or solvent. The medium in the dishes was replaced twice per week for the first two weeks of the assay, and thereafter once a week for the remainder four weeks of the assay. In the experiments designed to determine the transformation inhibitory activity of the conjugates, the cells were maintained in the medium containing the conjugates (1 μg/ml) for the first three weeks of the assay; thereafter, the cells were maintained in medium containing no added conjugates.
Six weeks after the carcinogen treatment, the cells were inspected under a microscope for adherence to the culture dishes and were washed with PBS and then fixed in 100% methanol. The fixed monolayers were then stained with Giemsa stain. 20 dishes per group were treated in each experiment. In addition to the test groups, all the transformation assays contained at least three other groups: negative control (not treated with carcinogen or solvent), acetone control (treated with 25 μl of acetone), and positive control [treated with MCA (1 μg/ml) in 25 μl of acetone]. The transformed foci (>3 mm in diameter) in the plates were studied under a microscope and classified according to published guidelines as types I, II, or III [Landolph, J. R. (1985) Transfomatin assay of established cell lines: Mechanism and Application (ed. Kakunaga, T., and Yamasaki, H.) IARC Scientific Publications, Lyon, France pp. 185–201]. Briefly, type III foci were dense, multilayered, basophilic, areas of cell growth which stained to a deep blue color with Giemsa and had rough criss-crossed edges. Type II foci were also dense, multilayered, areas of cell growth, but were stained to a purple color with Giemsa and had smoother, more defined edges compared to Type III foci. Type I foci were not scored in the assay.
BBI, either as the free protein or in conjugated form to palmitic or oleic acid, was added to the cultures at 1.0 μg/ml for the first three weeks of the transformation assay period starting immediately after the MCA treatment. MCA-treated cells were exposed to 3-methylcholanthrene, dissolved in 25 /μl of acetone, at a concentration of 1 μg/ml for 24 hr. Acetone-treated cells were exposed to 25 μl of acetone for 24 hr only. […]

[3] = cited from earlier work

B1: BBI: hydrophilic protein which has low uptake into cells and is not orally bioavailable; used for chemoprevention (protein, UniProt P01055 40-110, looked up)
Bowman-Birk type proteinase …: DDESSKPCCDQCACTKSNPPQCRCSDMRLNSCHSACKSCICALSYPAQCFCVDITDFCYEPCKPSEDDKEN
absorption into the mouse skins [1]: 0.14 μg/cm^2
transformed foci in the dishes scored [2]: no transformed foci
Fraction of dishes containing transformed foci ([2]; scored at six weeks): 0
No. of dishes with transformed foci/No. of dishes ([2]; scored at six weeks): 0/20
oral bioavailability [3]: not orally bioavailable
stability in the GI tract ([3]; mammalian proteases in the gut, Yavelow et al. 1983): stable in the GI tract

From US7052704B2, “Methods and compositions for lipidization of hydrophilic molecules” (University of Southern California, priority 1995, dated 2006)
